Test results taken from paper PMC11648839.

Experiments:
[1] = target: PmoA-eGFP (subunit A of the particulate methane monooxygenase enzyme complex, eGFP at the C-terminus) (UniProt Q607G3); assay: FRET or BRET; FRET-FLIM in living tobacco leaf epidermal cells; eGFP fusion as donor, mRFP fusion as acceptor; two-photon excitation at 920 nm, TCSPC; lifetime of the donor with acceptor compared with donor alone; region of interest on the nucleus
[2] = target: eGFP-PmoA (subunit A of the particulate methane monooxygenase enzyme complex, eGFP at the N-terminus) (UniProt Q607G3); assay: as above

| Substance | average eGFP (donor) fluorescence lifetime with acceptor [1] [ns] | Δ (reduction of donor lifetime against donor alone) [1] [ns] | average eGFP (donor) fluorescence lifetime with acceptor [2] [ns] | Δ (reduction of donor lifetime against donor alone) [2] [ns] |
| --- | --- | --- | --- | --- |
| PmoC-mRFP (subunit C of the particulate methane monooxygenase enzyme complex, mRFP at the C-terminus) (natural protein) | 2.2 | 0.2 |  |  |
| mRFP-PmoC (subunit C of the particulate methane monooxygenase enzyme complex, mRFP at the N-terminus) (natural protein) | 2.2 | 0.2 | 2.2 | 0.2 |
